Test results: patent publication US20080125365A1 (UNIVERSITY OF IOWA RESEARCH FOUNDATION, published 2008)

Legend:
[1] = target: recombinant soluble TLR4 extracellular domain (amino acids 24-634), FLAG-tagged (UniProt O00206); assay: co-expression with TLR4ECD, harvested medium incubated with [3H]LOS:sCD14, gel filtration
[2] = target: T1, TLR4 stably expressed on HEK293 cells (HEK/TLR4) (UniProt O00206 24-839, limits assumed); assay: overnight incubation with HEK/TLR4 cells at 37 C, cell-associated radioactivity by liquid scintillation
T1 construct: whole, on cells; Cells from Eisai Research Institute (Yang et al., 2000) or Invivogen; also called HEK293/TLR4; cellular TLR4
T1 sequence (O00206 24-839 limits assumed): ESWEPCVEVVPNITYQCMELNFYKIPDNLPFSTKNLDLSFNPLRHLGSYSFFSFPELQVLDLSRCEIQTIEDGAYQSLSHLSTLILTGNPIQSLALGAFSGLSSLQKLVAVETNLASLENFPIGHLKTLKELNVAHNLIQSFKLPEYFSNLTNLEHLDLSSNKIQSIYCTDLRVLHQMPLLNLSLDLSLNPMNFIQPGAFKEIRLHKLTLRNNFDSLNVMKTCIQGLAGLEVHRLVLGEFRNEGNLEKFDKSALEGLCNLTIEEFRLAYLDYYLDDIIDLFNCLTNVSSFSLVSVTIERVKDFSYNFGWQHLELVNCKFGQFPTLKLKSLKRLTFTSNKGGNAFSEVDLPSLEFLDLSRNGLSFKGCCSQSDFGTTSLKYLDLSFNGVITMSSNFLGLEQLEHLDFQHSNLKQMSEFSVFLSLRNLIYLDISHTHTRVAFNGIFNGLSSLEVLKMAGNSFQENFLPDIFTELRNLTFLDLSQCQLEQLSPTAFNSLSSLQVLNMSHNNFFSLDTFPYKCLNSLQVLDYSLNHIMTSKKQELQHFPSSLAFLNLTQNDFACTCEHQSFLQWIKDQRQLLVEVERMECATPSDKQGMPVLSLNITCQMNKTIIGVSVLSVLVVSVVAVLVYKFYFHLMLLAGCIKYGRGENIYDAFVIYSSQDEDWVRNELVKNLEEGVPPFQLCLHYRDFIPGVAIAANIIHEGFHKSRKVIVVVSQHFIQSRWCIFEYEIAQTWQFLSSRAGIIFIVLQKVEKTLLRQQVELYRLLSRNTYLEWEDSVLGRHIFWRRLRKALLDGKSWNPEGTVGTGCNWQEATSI

[3] = target: T2, recombinant soluble TLR4 extracellular domain (amino acids 24-634), FLAG-tagged (UniProt O00206 24-634); assay: culture medium of HEK293T cells secreting TLR4ECD spiked with [3H]LOS:sCD14, Sephacryl S200 gel filtration
T2 construct: range 24-634; Used as concentrated conditioned medium of HEK293T cells, not purified; also called TLR4ECD; FLAG-TLR4ECD; not shown: N-terminal FLAG tag from pFLAG-CMV
T2 sequence (O00206 24-634): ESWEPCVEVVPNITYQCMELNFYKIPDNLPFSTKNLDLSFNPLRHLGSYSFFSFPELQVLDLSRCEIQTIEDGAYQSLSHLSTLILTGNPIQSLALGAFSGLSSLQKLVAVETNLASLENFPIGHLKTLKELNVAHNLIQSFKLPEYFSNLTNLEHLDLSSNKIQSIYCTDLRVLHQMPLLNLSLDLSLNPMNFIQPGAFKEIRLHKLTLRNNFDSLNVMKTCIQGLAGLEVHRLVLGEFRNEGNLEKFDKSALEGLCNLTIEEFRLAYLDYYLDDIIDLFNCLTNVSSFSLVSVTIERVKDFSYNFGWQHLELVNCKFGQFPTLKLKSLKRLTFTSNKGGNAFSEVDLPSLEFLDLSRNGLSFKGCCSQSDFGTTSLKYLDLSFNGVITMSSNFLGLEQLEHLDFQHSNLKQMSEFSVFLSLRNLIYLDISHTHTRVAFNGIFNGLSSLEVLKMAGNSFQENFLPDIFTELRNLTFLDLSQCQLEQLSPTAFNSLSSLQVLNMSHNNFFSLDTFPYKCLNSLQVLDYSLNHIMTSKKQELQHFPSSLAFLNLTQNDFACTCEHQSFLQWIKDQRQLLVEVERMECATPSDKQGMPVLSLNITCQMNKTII

[4] = target: T2, recombinant soluble TLR4 extracellular …; assay: saturation binding of [3H]LOS:MD-2 (25,000 cpm/pmol) to soluble TLR4ECD, complex resolved by gel filtration
[5] = target: T2, recombinant soluble TLR4 extracellular …; assay: [3H]LOS:MD-2 F126A incubated 30 min at 37 C with concentrated TLR4ECD medium, Mr ~190,000 complex by gel filtration, Scatchard analysis

Chain of recombinant soluble TLR4 extracellular domain (amino acids 24-634), FLAG-tagged (UniProt O00206) (O00206 24-634): as above

Molecule: human MD-2 Y131A.K132A double mutant (from UniProt Q9Y6Y9 19-160)
- reduction of the yield of ([^3H]LOS:MD-2/TLR4ECD)2 against the single mutants [1]: 50%

B1: monomeric complex of LOS with soluble CD14 (other)
chain: TTPEPCELDDEDFRCVCNFSEPQPDWSEAFQCVSAVEVEIHAGGLNLEPFLKRVDADADPRQYADTVKALRVRRLTVGAAQVPAQLLVGALRVLAYSRLKELTLEDLKITGTMPPLPLEATGLALSSLRLRNVSWATGRSWLAELQQWLKPGLKVLSIAQAHSPAFSCEQVRAFPALTSLDLSDNPGLGERGLMAALCPHKFPAIQNLALRNTGMETPTGVCAALAAAGVQPHSLDLSHNSLRATVNPSAPRCMWSSALNSLNLSFAGLEQVPKGLPAKLRVLDLSCNRLNRAPQPDELPEVDNLTLDGNPFLVPGTALPHEGSMNSGVVPACARSTLSVGVSGTLVL
notes: Mr ~60,000; also called LOS:sCD14; [^3H]LOS:sCD14
- binding result [2]: no binding (tested: 0.75 ng/ml ^3H-LOS)
- binding result [3]: no binding (tested: 1 nM [^3H]LOS:sCD14)

B2: monomeric complex of wild-type (hexa-acylated) N. meningitidis LOS with wild-type human MD-2-His6 (ligand)
chain: QKQYWVCNSSDASISYTYCDKMQYPISINVNPCIELKRSKGLLHIFYIPRRDLKQLYFNLYITVNTMNLPKRKEVICRGSDDDYSFCRALKGETVNTTISFSFKGIKFSKGKYKCVVEAISGSPEEMLFCLEFVILHQPNSNHHHHHH
notes: mature; Mr ~25,000; Radiolabel (3H or 14C) is on the LOS; also called [^3H]LOS:MD-2; [^3H]LOS:MD-2-His6
- Kd [4]: < 0.3 nM

B3: monomeric complex of wild-type LOS with human MD-2 F126A (ligand)
chain: QKQYWVCNSSDASISYTYCDKMQYPISINVNPCIELKRSKGLLHIFYIPRRDLKQLYFNLYITVNTMNLPKRKEVICRGSDDDYSFCRALKGETVNTTISFSFKGIKASKGKYKCVVEAISGSPEEMLFCLEFVILHQPNSN
notes: mature; Made in HEK293T cells (MD-2-FLAG-His) for analytical work and in High Five insect cells for preparative amounts; also called LOS:MD-2^F126A; [^3H]LOS:MD-2^F126A; not shown: C-terminal tag: pEF-BOS-MD-2^F126A-FLAG-His insert moved into pBAC11; which tag
- Kd [5]: ~0.2 nM
